Assay results taken from patent US20160137740A1 (AstraZeneca / MedImmune, published 2016).
Several values for one entry are separate records, joined by “and”; a condition that tells them apart may be missing. Equal values may be shown once.

Assays:
[1] = target: T1, Human OX40 (human, UniProt P43489 29-277); assay: cell-based or functional assay
T1 sequence: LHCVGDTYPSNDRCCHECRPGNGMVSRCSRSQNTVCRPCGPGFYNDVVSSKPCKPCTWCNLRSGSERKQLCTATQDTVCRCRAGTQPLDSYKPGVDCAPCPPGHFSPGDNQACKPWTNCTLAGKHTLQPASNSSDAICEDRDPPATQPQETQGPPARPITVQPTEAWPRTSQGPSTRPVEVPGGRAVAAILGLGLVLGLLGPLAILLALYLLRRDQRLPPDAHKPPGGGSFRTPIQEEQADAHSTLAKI

[2] = target: T1, Human OX40; assay: cell-based or functional assay; remark: listed apart in the source
[3] = target: T1, Human OX40; assay: cell-based or functional assay; remark: listed apart in the source
[4] = target: cyno/rhesus OX40 expressed on Jurkat NFκB-luciferase reporter clone B2 (cynomolgus/rhesus monkey); assay: cell-based or functional assay
[5] = target: T1, Human OX40; assay: flow cytometry on activated primary human CD4+ T cells; 50% receptor occupancy calculated from Kd
Protocol: (§1) OX40mAb24 (10 μg/mL) or 9B12 (10 μg/mL) was diluted over a 17 point 2-fold dilution series. OX40mAb24 was added to 100,000 cells (activated primary CD4⁺ T cells or human OX40-overexpressing Jurkat NFkB-luciferase clone 64 cells) per well and incubated for one hour at 4° C. For background binding subtraction, cells were incubated in the presence of secondary antibody alone. […] Following secondary antibody incubation, cells were washed and suspended in 100 μL FACS buffer for flow cytometry analysis on a BD LSRII flow cytometer as described below.

[6] = target: T2, Recombinant human TNFRSF3 (LTβR) (human, UniProt P36941 28-227, limits assumed); assay: ELISA, plate coated with a dilution series of the recombinant TNFRSF protein [panel B]
T2 construct: Plate-adsorbed antigen of the ELISA
Protocol: (§2) An eight point, two-fold dilution series of each recombinant human TNFRSF protein was prepared after dilution of stock proteins to 5 μg/mL in PBS. Subsequently, 50 μL of each antigen dilution was transferred in duplicate to wells of a Nunc 96-well MaxiSorp flat bottom plate, and incubated overnight at 4° C. to adsorb proteins to the plate. Afterwards, plates were washed three times with PBS in a BioTek® plate washer to remove unbound protein. Anti OX40 mAb29, 9B12, and control antibodies were diluted in PBS to a final concentration of 10 μg/mL, and 50 μL of mAb were added to each well and incubated at room temperature for one hour to bind mAb to plate-bound protein. Thereafter, wells were washed with PBS/Tween-20 0.1% (volume/volume) using a BioTek® plate washer. HRP conjugated goat anti-human or goat anti-mouse secondary antibodies at 10 μg/mL was added to each well and incubated at room temperature for 1 hour. After three washes in PBS/Tween-20 0.1%, 50 μL of TMB substrate was added to each well and incubated at room temperature for 5 minutes to develop the colorimetric product. Reactions were stopped by adding 50 μL of 0.5 molar H₂SO₄ to wells, and plates read immediately at 450 nm using an Envision C plate reader for detection of the colorimetric product.

[7] = target: T3, Recombinant human TNFRSF21 (DR6) (human, UniProt O75509 42-349, limits assumed); assay: as above
T3 construct: Plate-adsorbed antigen of the ELISA
T3 sequence (looked up): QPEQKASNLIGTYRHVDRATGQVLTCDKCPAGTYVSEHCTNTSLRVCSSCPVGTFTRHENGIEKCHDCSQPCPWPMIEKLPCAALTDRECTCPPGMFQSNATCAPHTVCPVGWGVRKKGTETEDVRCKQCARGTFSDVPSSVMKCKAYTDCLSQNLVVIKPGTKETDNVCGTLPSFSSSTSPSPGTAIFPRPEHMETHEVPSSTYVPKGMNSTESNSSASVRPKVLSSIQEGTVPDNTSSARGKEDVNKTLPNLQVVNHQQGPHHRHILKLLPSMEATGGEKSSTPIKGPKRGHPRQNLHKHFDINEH
Protocol: as §2

[8] = target: T4, Recombinant human TNFRSF11B (OPG) (human, UniProt O00300 22-401, limits assumed); assay: as above
T4 construct: Plate-adsorbed antigen of the ELISA; also called osteoprotegerin
T4 sequence (looked up): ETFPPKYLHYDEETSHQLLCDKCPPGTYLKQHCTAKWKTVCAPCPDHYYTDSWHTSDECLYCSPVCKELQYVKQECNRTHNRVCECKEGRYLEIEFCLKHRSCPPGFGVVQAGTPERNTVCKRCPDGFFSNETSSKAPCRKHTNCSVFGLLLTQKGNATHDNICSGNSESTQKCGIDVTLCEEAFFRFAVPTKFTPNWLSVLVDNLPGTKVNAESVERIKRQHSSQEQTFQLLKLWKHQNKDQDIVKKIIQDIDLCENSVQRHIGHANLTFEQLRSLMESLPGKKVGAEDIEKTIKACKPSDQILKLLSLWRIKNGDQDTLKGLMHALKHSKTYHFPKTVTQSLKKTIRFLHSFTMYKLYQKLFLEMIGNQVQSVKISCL
Protocol: as §2

[9] = target: T5, Recombinant human TNFRSF6 (FAS) (human, UniProt P25445 26-173); assay: as above
T5 construct: Plate-adsorbed antigen of the ELISA
T5 sequence (looked up): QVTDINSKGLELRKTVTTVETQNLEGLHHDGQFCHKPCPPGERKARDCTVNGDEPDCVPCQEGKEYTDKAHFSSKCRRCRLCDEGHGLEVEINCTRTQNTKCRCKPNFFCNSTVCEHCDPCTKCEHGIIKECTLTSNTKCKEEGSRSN
Protocol: as §2

[10] = target: T6, Rhesus monkey OX40 (rhesus monkey); assay: flow cytometry, equilibrium binding to activated primary rhesus CD4+ T cells; mean of 2 experiments (StdErr)
T6 construct: also called rhesus macaque OX40

[11] = target: T1, Human OX40; assay: flow cytometry on activated primary human CD4+ T cells, AlexaFluor 488 anti-mouse IgG secondary [FIGURE 2A-D, con't.), panel C]
Protocol: as §1

[12] = target: T1, Human OX40; assay: flow cytometry, equilibrium binding to human OX40-overexpressing Jurkat NFkB-luciferase clone 64 cells; mean of 3 experiments (StdErr)
Protocol: Human OX40-overexpressing Jurkat NFκB-luciferase clone 64 cells were cultured in complete RPMI+10% FBS prior to binding experiments, without the need for activation.
as §1

T2 sequence (P36941 28-227 limits assumed): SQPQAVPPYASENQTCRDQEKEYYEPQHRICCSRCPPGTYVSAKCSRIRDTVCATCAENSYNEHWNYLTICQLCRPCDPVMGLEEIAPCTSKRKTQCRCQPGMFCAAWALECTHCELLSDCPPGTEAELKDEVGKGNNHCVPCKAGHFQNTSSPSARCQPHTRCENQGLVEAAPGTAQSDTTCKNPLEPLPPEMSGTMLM

- EC50, IFNγ release, donor 645 [1]: 2380 pM
- EC50, IFNγ release, donor 651 [1]: 758 pM
- EC50, IL5 release, donor 651 [2]: 1090 pM
- mean EC50, NFκB-luciferase 2-cell assay, human Raji B cells + human OX40 Jurkat clone 64 [3]: 4680 pM
- EC50, NFκB-luciferase 2-cell assay, rhesus RBC-lysed whole blood + cyno/rhesus OX40 Jurkat clone B2 [4]: 6050 pM
- EC50 [5]: 669 pM
- binding result [6]: no binding
- binding result [7]: no binding
- binding result [8]: no binding
- binding result [9]: no binding
- Kd [10]: 713 pM
- EC50 (read off the curve) [11]: ~1000 pM and ~500 pM
- Kd [12]: 726 pM
B1: 9B12 (antibody, mouse IgG1, V domains shown)
VH: EVQLQESGPSLVKPSQTLSLTCSVTGDSFTSGYWNWIRKFPGNRLEYMGYISYNGITYHNPSLKSRISITRDTSKNHYYLQLNSVTTEDTATYFCARYRYDYDGGHAMDYWGQGTLVTVSS
VL: DIQMTQTTSSLSASLGDRVTISCRASQDISNYLNWYQQKPDGTVKLLIYYTSKLHSGVPSRFSGSGSRTDYSLTITDLDQEDIATYFCQQGSALPWTFGQGTKVEIKR
notes: mouse IgG1 kappa; also called murine mAb 9B12; mouse anti-human OX40 IgG1κ monoclonal antibody
